Test results from the DeepSol protein solubility set.

experiment: soluble on expression in E. coli; label from the status in PepcDB or PDB records

| Sequence | soluble on expression in E. coli |
| --- | --- |
| MGSDKIHHHHHHMISQHVRKKTREYPNRFFDSSVWNDLALRRGDIVIASYAKAGTTWLQQIVAQLIFGGEPNIDVSAISPWVDGVYPDKATKLALLEAQSQRRFMKTHLPADALVTSPLARYLYIGRDGRDIALSLYDHQCAVSQDAQARVHANGGKSGKLRVVSPPGLPRDAYVAHWLEYDGAPFWPLWENVRSWWERREDANVLLLHYADLLDDLPGQIRLIAAFLGITVAQDRWDAIVAHCRFDYMRQHAARYVPQGTGLWREDGKAFFNQGRIGRWREVLPAELNTAYSRRAEAELGRDAAQWLAHGQTQTS | not soluble |
| EVQLLEESGPGLVQPSQSLSITCTVSGFSLTSYGVHWVRQSPGKGLEWLGVIWSGGSTDYNAAFISRLSISKDNSKSQVFFKMNSLQADDTAIYYCARNRGYSYAMDSWGQGTSVTVSSAKTTPPSVYPLAPGSAAQTNSMVTLGCLVKGYFPEPVTVTWNSGSLSSGVHTFPAVLQSDLYTLSSSVTVPSSTWPSETVTCNVAHPASSTKVDKKIVPRDCTS | soluble |
| MDWIESVKSYIKVVEEGSFNAAAYQLNTSGSAISKRINWLEERVGVQLLTRTTRSVHQTEAGLLFYQRARLQLDQWQHLVDETRAINQTPAGLLKIGATLAVGSKFIIKYLDEFLATYPKIKVQLITTLPGQVPEHNVDVFISRELEQLNTFSYKATHLFEHHSGFFASKDYLDKYGTPNNINELKAHNMLIWGERPIKEIKLTNNKRVTLRGNFATTNPEALFHAAKRGMGILLTSQQMVIDDLQSGALVPILPEITTDHTRVNAYYPTLDYEHTRTQLFIKYLKTKLS | not soluble |
| MGSDKIHHHHHHMNDALITDALIRGRHAKRGFHRERPVPLETVRDILAVAKYAPSSSNTQPWRCYVVIGDARDRLANAAVEAYRADPENLTPEYPFFPKPLHEPYSARFNTFRGQLGDAQGVPRSDKAGRRRDVERQFRFFDAPIGLIFTMDRRLEWASFLCYGCFLQNIMLAARARGLDTCPQQIWSLQYAVLREQLDIPEGEMVVAGMSLGYADDSLPENNMALRRLELEEFVSVIEG | not soluble |
| MQFERISTEQKKLSLIQTFLHQNALKLDEQIEYFVVGYNDNEQIVVCGGLAGNIIKCVAIDESLRGSGVALQLITELVDLAYTLKRPHLFIYTKPEYATLFKSCGFYIISDANPYVVLLENSATRLQKQCSLWEKMRVDGNRIGSIVMNANPFTLGHRYLIEQALQQCDHLHLFIVGEDASQFSYTERFEMIQQGIFDLSNITLHSGSDYIISRATFPNYFLKDQLITDESYFEIDLKLFRLHIAQALGITHRFVGTELNCPVTAEYNRQMHYWLMDAEMNAPKINVIEIPRKTASNHIISASTVRKHLAEKNWAQLAEFVPMTTLNYLQKCGRF | soluble |
| RRYWVVLDGNFEDYLKKFSAKSRNTLLRKIKRFAELSGGEIDWREYCKPEEMHEFYKLAMEVSQKTYQERLLDCGLPSDQQFQENMLALAAEDNVRGYLLFYQKKPIAYIYCPVHDGIALYEYVGHDPEYQRWSPGTLLQYFALQRMFTASHIKIFDFTEGEGAHKAFFATNNQYCADVYYFRR | not soluble |
| MISIFDIFKIGIGPSSSHTVGPMKAAAAFAAGLDAQAVRIVIDIYGSLALTGYGHGTFDALMLGLEGSLPHDIPLAGIPERLERIRTQHILRLNGQEIRFIPDRDLNILGNQVLPKHPNSLRFTAYASDGTVLNEQVYYSVGGGFVVTEEDFDR | not soluble |
| MILLSKQTPLGAGRHRKCYTHPDNARRCIKVIYNRDHGGDKEIRRELSYYAHLSRYLTDWSAIPRYYGTVETDCGTGYVYDMITDFNGAPSITLTEFAAQCRYEEDVAVLRRLLKKLKRYLLDNHIVTMSLKPQNILCQRISESEVVPVVCDNLGESTFIPLATWSTWCCERKLERVWQRFIAQPALAVALERDAQPKDKKRLALTSHEALEHHHHHH | not soluble |
| MTVDLTNVFQQIDGDYDNLKELLREAVAIQSVSGDPSKRDETIRMVHWMKEKLETIGTICELADLGTQELEGKTVKLPPVLLGTLGSDKNKKTLLVYGHLDVQPAAKSDGWDTEPFELVEKDGKLFGRGSSDDKGPVLCWFHAIRAAQKNGIDLPVNIKFCLEGMEESGSVGLPELLEREKDRFLAGVDFVCISDSYWLGTKKPCLTYGLRGICSFFVEVTGIKQDLHSGVFGGVIHEPLQDLMWVMSQLTTVDNRIKIPGLYEQVAPLSAAEEKTYDDIEFDVAEFRDSVGASKLPTEDKKTLLLRRWREPSLAFHGIEGAFYGPGEKTVIPSKVIGKFSIRIVPDMDPEQVNRLTVEYLNKVWAERGSPNVFKPRPGHSAKPWVVDVNDSNFLAGARAMKRVHGVEPDRIREGCSIPITLTFQELTGKSVLLLPIGAADDMAHSQNEKNNIWNYVEGVKTLLAYIMELGSA | not soluble |
| CSSPQHASTVPGTTPSIWTGSPAPSGLSGHDEESPGAQSLTSTLTAPDGTKVATAKFEFANGYATVTIATTGVGKLTPGFHGLHIHQVGKCEPNSVAPTGGAPGNFLSAGGHYHVPGHTGTPASGDLASLQVRGDGSAMLVTTTDAFTMDDLLSGAKTAIIIHAGADNFANIPPERYVQVNGTPGPDETTLTTGDAGKRVACGVIGSG | soluble |
| MLTRDFLQKADCRTSFGCIEETLLLTPQQRADSLDRMLALRPNSCPVWVFGYGSLMWNPVFDAEETCLATLTGWQRAFCLRLTIGRGTVTQPGRMLALQPGGQTTGLAFRLPKTSLREDLELLWKREMLTGCYRPLWCELHRKNGAPLTALVFVSEPEHPLNENDTCIQSVAPLIARASGPLGTNAQYLFALEQELKNHGTEDESVSELAQRVRTLQQSCPAPAGGGQLEHHHHHH | not soluble |
| MSSAQFDHVTVIKKSNVYFGGLCISHTVQFEDGTKKTLGVILPTEQPLTFETHVPERMEIISGECRVKIADSTESELFRAGQSFYVPGNSLFKIETDEVLDYVCHLEG | soluble |
| MVMHIKQSTVRSMLIVARRGKKRLNLDPDALAVLTALINLLAQESVARAAQSAANTGSRHVTKEHLKRVIAQLMLDFAI | not soluble |
| MGSDKIHHHHHHMRYQNTYAQLDTRLYHEQLPNPLDNPRAGHFNNQVADQLGWTKAADLMARWVEILGGQYVPAEFQPLSMAYAGHQFGQWAGQLGDGRGLLMTQVLDKNNQLQDLHLKGAGLTPYSRMGDGRAVLRSTIREYLCGHALTQLGIASSNALGFVVSDTKVRRERLEAGAALMRVADSHIRLGHVEWIASFAPDLLAEFTDYMIDTYYPECRDSEKPVLAFLQAVVERTARMIADWQLIGFAHGVMNTDNLSITGSTLDFGPFGFMERFNPAWINNHSDHSGRYAYQNQPAIGHWNLNVWLPHFMRLTQAGVTRETLADCLAPYEATFMQHYQQGLCRKLGLPHQRESLSLAFEWLTLLEDNLLDYTNSFRALLGLIAPNEHLYEQQLLATMTAELNPEAQQVWQVWSTRYLAQIQQVSITQAIEEMQASNPIYILRNSMAQRVIVAAEQGQFEELNRVFDLLAKPYTLQDSAIELDTLPPAPHAPQMPISCSS | not soluble |
| MGSDKIHHHHHHMTAPMNVIDDYYVSLGKIGILNYRTMDESGENAFLRKYLPSLSSPTILDVGANIGGYSKAILRESPSARVYAFEPHPITFGNLTKDTAEDRFHALNIGIGAKEETLDFYDYRDEDGSSHASLYKEVIEDIHHRPSTSHRVSIRRLDDVCAELGLPHIALLKIDTEGHELAALQGAERLIRSGAIDVIQFEFNEMNVISRCFFKDFWDFLPDYRFFRLLPHGSIEIKTYIPSFCEIFAFQNIVCVKKDLPEFF | not soluble |
| MGSDKIHHHHHHMLTRMMQATAAIQQSVDGYFAVPTSLLVPDARGGFSIYLKQERGFVLYAKEDEAFTMRHRMQLRAHGVTQVFVPAPQHPSFISHRERHFGRVLSDDSLPLPERARLFYETSTEIVKEVFEKKLPRTLKRETFDRILALVSEGISFLTLENSLKTVASLVAHDYHTYSHSLHVFVYSQALLQSYGFDEDSLVQFGLGAMLHDIGKTFLDAAILTKPAALTPDEREEVNRHPVFGVGACARMPLSQDAINCILFHHEKLDGSGYPCGLRGDEIPLPVRAITIADIYDALTSNRAYAPARNAFQVLRIMSSEMRDQLDLDMFRRFVLMLSGANVL | not soluble |
| GSHMASKPIEDYGKGKGRIEPMYIPDNTFYNADDFLVPPHCKPYIDKILLPGGLVKDRVEKLAYDIHRTYFGEELHIICILKGSRGFFNLLIDYLATIQKYSGRESSVPPFFEHYVRLKSYQNDNSTGQLTVLSDDLSIFRDKHVLIVEDIVDTGFTLTEFGERLKAVGPKSMRIATLVEKRTDRSNSLKGDFVGFSIEDVWIVGCCYDFNEMFRDFDHVAVLSDAARKKFEK | soluble |
